# Where “and” joins values, the source holds several entries; their conditions need not be identical. Equal entries are not always repeated.
# Key:
# [1] = biological target: nonmyristoylated MMTV MA (matrix protein of mouse mammary tumor virus), wild type, with C-terminal His-tag (mouse mammary tumor virus) (UniProt P10258); assay: AUC; sedimentation velocity, protein at 5.0 mg/mL in 50 mM Na2HPO4, 300 mM NaCl, 2.5 mM TCEP, pH 6.0; 50,000 rpm, 4 °C; absorbance at 250 nm; c(s) continuous size distribution; monomer to dimer (and tetramer)
# [2] = biological target: myristoylated MMTV MA triple mutant L11N/F12N/V15N, with C-terminal His-tag (mouse mammary tumor virus) (UniProt P10258); assay: AUC; sedimentation velocity, protein at 0.5 mg/mL in 50 mM Na2HPO4, 300 mM NaCl, 2.5 mM TCEP, pH 6.0; 50,000 rpm, 4 °C; absorbance at 280 nm; c(s) continuous size distribution; monomer to dimer
# [3] = biological target: myristoylated MMTV MA triple mutant L11N/F12N/V15N, with C-terminal His-tag (mouse mammary tumor virus) (UniProt P10258); assay: AUC; sedimentation velocity, protein at 5.0 mg/mL in 50 mM Na2HPO4, 300 mM NaCl, 2.5 mM TCEP, pH 6.0; 50,000 rpm, 4 °C; absorbance at 250 nm; c(s) continuous size distribution; monomer to dimer (and tetramer)
# [4] = biological target: myristoylated MMTV MA (matrix protein of mouse mammary tumor virus), wild type, with C-terminal His-tag (mouse mammary tumor virus) (UniProt P10258); assay: AUC; sedimentation velocity, protein at 0.5 mg/mL in 50 mM Na2HPO4, 300 mM NaCl, 2.5 mM TCEP, pH 6.0; 50,000 rpm, 4 °C; absorbance at 280 nm; c(s) continuous size distribution; monomer to dimer
# [5] = biological target: myristoylated MMTV MA (matrix protein of mouse mammary tumor virus), wild type, with C-terminal His-tag (mouse mammary tumor virus) (UniProt P10258); assay: AUC; sedimentation velocity, protein at 5.0 mg/mL in 50 mM Na2HPO4, 300 mM NaCl, 2.5 mM TCEP, pH 6.0; 50,000 rpm, 4 °C; absorbance at 250 nm; c(s) continuous size distribution; monomer to dimer (and tetramer)
substance,measurement,setting,value
"nonmyristoylated MMTV MA (matrix protein of mouse mammary tumor virus), wild type, with C-terminal His-tag (from UniProt P10258 2-92) (domain or fragment)",percent dimer,[1],26%
same,stoichiometry N,[1],2
"myristoylated MMTV MA triple mutant L11N/F12N/V15N, with C-terminal His-tag (from UniProt P10258 2-92) (domain or fragment)",percent dimer,[2],48%
same,stoichiometry N,[2],2
same,stoichiometry N,[3],2
"myristoylated MMTV MA (matrix protein of mouse mammary tumor virus), wild type, with C-terminal His-tag (from UniProt P10258 2-92) (domain or fragment)",stoichiometry N,[4],2
same,percent dimer,[5],98%
same,percent tetramer,[5],2%
same,stoichiometry N,[5],2 and 4
